From patent US20160109459A1, “Compositions And Methods For Heparan Sulfate As A Biomarker For Transplant Rejection” (Duke University, priority 2012, published 2016)

Biological target: T1, human TLR4 (Homo sapiens, UniProt O00206)
T1 construct: expressed in transfected cells; host or cells: HEK 293 (gift from Dr. Michael Fessler, NIEHS)
Experiment: IL-8 production by ELISA in HEK TLR4-MD2-CD14 cells
Type: cell-based
Settings: HS pre-treated with heparanase
Method: HEK cell lines stably expressing CD14 and MD2 alone (HEK MD2-CD14), or co-expressed with human TLR2 (HEK TLR2-MD2-CD14) or human TLR4 (HEK TLR4-MD2-CD14) were transfected with a plasmid encoding firefly luciferase (F) under control of the NF-κB promoter along with a plasmid expressing Renilla luciferase (R) under control of the thymidine kinase promoter as a transfection control. Cell lines were cultured for 6 hours with media alone, LPS (100 ng/mL), HS (100 μg/mL), or Pam3CSK4 (2 μg/mL). […] FIG. 5B is a graph showing results supernatants analyzed for IL-8 production by ELISA. […] Experiments were performed in triplicate or quadruplicate. Results are representative of two to three independent experiments.
HEK 293 cell lines co-expressing human CD14, MD2 and TLR4 or TLR2 were a kind gift from Dr. Michael Fessler (NIEHS, Research Triangle Park, N.C., USA). […]
Thus, to determine whether if TLR4 was sufficient for HS activity, the ability of HS to activate human epithelial kidney (HEK) cell lines stably transfected to express human TLR4 or human TLR2 in addition to the co-receptors CD14 and MD2 was tested. […] The ratio of luminescence produced by firefly luciferase to Renilla luciferase (F/R) was then measured in response to media alone, LPS, HS, and Pam3CSK4. The production of IL-8, which is downstream of NF-κB activation, by ELISA was also measured. […]

T1 sequence (O00206 24-839): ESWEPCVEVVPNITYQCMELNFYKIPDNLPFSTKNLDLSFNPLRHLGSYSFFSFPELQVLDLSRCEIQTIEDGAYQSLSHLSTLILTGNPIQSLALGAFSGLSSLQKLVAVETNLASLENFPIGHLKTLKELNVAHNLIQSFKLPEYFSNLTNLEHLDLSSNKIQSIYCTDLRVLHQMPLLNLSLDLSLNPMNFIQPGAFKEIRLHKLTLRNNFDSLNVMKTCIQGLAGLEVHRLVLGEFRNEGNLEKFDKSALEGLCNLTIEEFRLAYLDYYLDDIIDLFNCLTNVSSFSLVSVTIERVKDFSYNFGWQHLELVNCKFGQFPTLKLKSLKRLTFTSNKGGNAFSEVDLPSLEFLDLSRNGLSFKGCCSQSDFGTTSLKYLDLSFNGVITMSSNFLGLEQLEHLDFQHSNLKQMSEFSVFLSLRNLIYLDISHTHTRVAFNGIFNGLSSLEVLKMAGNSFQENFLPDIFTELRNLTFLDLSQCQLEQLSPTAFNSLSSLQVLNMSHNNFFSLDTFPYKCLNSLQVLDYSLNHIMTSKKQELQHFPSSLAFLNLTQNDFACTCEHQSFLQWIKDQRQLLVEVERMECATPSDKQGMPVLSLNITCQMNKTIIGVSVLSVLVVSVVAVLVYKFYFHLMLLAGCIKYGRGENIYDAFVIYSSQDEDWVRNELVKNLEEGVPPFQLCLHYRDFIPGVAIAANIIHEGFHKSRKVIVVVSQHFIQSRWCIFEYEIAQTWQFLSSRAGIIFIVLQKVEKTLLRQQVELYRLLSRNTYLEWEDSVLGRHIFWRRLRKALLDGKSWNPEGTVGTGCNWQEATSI
T1 sequence (Q9Y6Y9 17-160 partner limits assumed): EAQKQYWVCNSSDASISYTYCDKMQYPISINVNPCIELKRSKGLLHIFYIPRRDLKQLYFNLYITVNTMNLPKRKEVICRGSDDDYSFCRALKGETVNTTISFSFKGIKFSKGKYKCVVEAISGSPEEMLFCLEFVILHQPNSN

B1: Heparanase: heparinase III from Flavobacterium heparinum (Sigma), enzyme that degrades heparan sulfate (protein, UniProt Q59289 25-659, looked up)
Heparin-sulfate lyase: QSSSITRKDFDHINLEYSGLEKVNKAVAAGNYDDAAKALLAYYREKSKAREPDFSNAEKPADIRQPIDKVTREMADKALVHQFQPHKGYGYFDYGKDINWQMWPVKDNEVRWQLHRVKWWQAMALVYHATGDEKYAREWVYQYSDWARKNPLGLSQDNDKFVWRPLEVSDRVQSLPPTFSLFVNSPAFTPAFLMEFLNSYHQQADYLSTHYAEQGNHRLFEAQRNLFAGVSFPEFKDSPRWRQTGISVLNTEIKKQVYADGMQFELSPIYHVAAIDIFLKAYGSAKRVNLEKEFPQSYVQTVENMIMALISISLPDYNTPMFGDSWITDKNFRMAQFASWARVFPANQAIKYFATDGKQGKAPNFLSKALSNAGFYTFRSGWDKNATVMVLKASPPGEFHAQPDNGTFELFIKGRNFTPDAGVFVYSGDEAIMKLRNWYRQTRIHSTLTLDNQNMVITKARQNKWETGNNLDVLTYTNPSYPNLDHQRSVLFINKKYFLVIDRAIGEATGNLGVHWQLKEDSNPVFDKTKNRVYTTYRDGNNLMIQSLNADRTSLNEEEGKVSYVYNKELKRPAFVFEKPKKNAGTQNFVSIVYPYDGQKAPEISIRENKGNDFEKGKLNLTLTINGKQQLVLVP
In the case of B1, the “effect of pre-treatment on HS stimulation of IL-8 expression” value is reported as “significantly reduced”.
